Assay results taken from article PMC11257959, “Structural basis of the histone ubiquitination read–write mechanism of RYBP–PRC1” (Nature Structural & Molecular Biology, 2024).
Substitutions are numbered along the chain they refer to. Names and notes keep the numbering of the source.

Assays:
[1] = molecular target: T1, human ubiquitin (human, UniProt P0CG47 1-76, conjugated to H2A); test: cryo-EM structure; vPRC1:Nuc_(H2Aub1); Nuc_(H2Aub1)/vPRC1 ratio of 1:5 in UB buffer, 1 h at 4 °C; biotinylated nucleosomes bound to streptavidin-coated grids, two additional washes; details: both partners purified
T1 construct: human ubiquitin, the cut product of the precursor; Stood as the ubiquitin moiety of H2Aub1 in the nucleosome; source: bought: Boston Biochem; conjugated to H2A of the nucleosome in vitro

[2] = molecular target: T2, RING1B:BMI1 full-length heterodimer (human, UniProt Q99496 1-336; P35226 1-326); test: SEC; purified RYBP mixed with purified RING1B:BMI1 at a 1:1 molar ratio, cation exchange, then SEC in 25 mM Tris-HCl pH 7, 150 mM NaCl, 10% glycerol, 2 mM DTT; details: both partners purified
T2 construct: also called RING1B:BMI1 dimer; source: High Five insect cells (baculovirus, coexpressed from one vector), purified (Ni-NTA, twin strep-tag cleavage, SEC); not shown: twin strep-tag, N-terminal, cleaved; His6, C-terminal, kept
T2 sequence (looked up) 1: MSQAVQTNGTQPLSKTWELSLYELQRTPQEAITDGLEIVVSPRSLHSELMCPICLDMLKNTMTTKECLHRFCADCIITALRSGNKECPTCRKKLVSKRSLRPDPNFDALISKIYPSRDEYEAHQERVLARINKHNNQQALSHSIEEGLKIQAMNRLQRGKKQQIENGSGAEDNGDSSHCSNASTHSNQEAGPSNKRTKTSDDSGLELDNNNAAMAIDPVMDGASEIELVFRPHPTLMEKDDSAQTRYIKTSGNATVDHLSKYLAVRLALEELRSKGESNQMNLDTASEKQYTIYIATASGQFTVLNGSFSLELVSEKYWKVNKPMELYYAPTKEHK
T2 sequence (looked up) 2: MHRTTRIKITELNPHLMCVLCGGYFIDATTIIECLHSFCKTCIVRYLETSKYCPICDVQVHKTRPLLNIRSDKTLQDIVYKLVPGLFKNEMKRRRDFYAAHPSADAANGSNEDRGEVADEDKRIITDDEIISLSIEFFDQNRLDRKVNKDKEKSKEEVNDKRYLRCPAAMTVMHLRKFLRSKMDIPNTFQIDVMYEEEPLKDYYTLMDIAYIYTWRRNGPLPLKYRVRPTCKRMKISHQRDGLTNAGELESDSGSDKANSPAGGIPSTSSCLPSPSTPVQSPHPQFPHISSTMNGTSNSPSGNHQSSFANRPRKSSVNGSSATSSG

[3] = molecular target: T3, human RING1B, full length (human, UniProt Q99496 1-336); test: SEC; RING1B and BMI1 coexpressed in insect cells from one vector, Ni-NTA (His tag on BMI1), tag cleavage, SEC (S200); details: partners not purified
T3 construct: In the cryo-EM sample a subunit of vPRC1; residues 15-115 were built; source: High Five insect cells (baculovirus), coexpressed with BMI1, purified; not shown: twin strep-tag, N-terminal, cleaved
T3 sequence (looked up): T2 sequence (looked up) 1

[4] = molecular target: T4, Drosophila melanogaster histone H4 (D. melanogaster, UniProt P84040 1-103); test: cryo-EM structure; vPRC1:Nuc; Nuc/vPRC1 ratio of 1:10 in UB buffer, 1 h at 4 °C; biotinylated nucleosomes bound to streptavidin-coated grids; details: both partners purified
T4 construct: histone H4, D. melanogaster; Stood within the nucleosome; source: bought: The Histone Source (Colorado State University); in the reconstituted nucleosome

B1: human RYBP, full length (natural protein, UniProt Q8N488 1-228, looked up)
chain: MTMGDKKSPTRPKRQAKPAADEGFWDCSVCTFRNSAEAFKCSICDVRKGTSTRKPRINSQLVAQQVAQQYATPPPPKKEKKEKVEKQDKEKPEKDKEISPSVTKKNTNKKTKPKSDILKDPPSEANSIQSANATTKTSETNHTSRPRLKNVDRSTAQQLAVTVGNVTVIITDFKEKTRSSSTSSSTVTSSAGSEQQNQSSSGSESTDKGSSRSSTPKGDMSAVNDESF
notes: In the cryo-EM sample it stood as a subunit of vPRC1; residues 23-58 were built; source: High Five insect cells (baculovirus), purified (Ni-NTA, His tag cleavage, reverse Ni-NTA); not shown: His6, N-terminal, cleaved
[1]
  binding result: binds
[2]
  binding result: binds

B2: RYBP_(R47A/R53A/R56A) (natural protein, human, UniProt Q8N488 1-228, looked up)
chain: B1 chain with R47A, R53A, R56A
notes: source: High Five insect cells (baculovirus), purified following the same procedure as the wild-type protein; not shown: His6, N-terminal, cleaved
[2]
  binding result: binds

B3: RYBP_(T31A/F32A) (natural protein, human, UniProt Q8N488 1-228, looked up)
chain: B1 chain with T31A, F32A
notes: as for B2
[2]
  binding result: binds

B4: human BMI1, full length (natural protein, UniProt P35226 1-326, looked up)
chain: T2 sequence (looked up) 2
notes: In the cryo-EM sample a subunit of vPRC1; residues 3-107 were built; also called BIM1; source: High Five insect cells (baculovirus), coexpressed with RING1B, purified; not shown: His6, C-terminal, kept
[3]
  binding result: binds
[4]
  binding result: binds
